In this assay the test system is ICR mice. Put plainly: Tail-flick test with 48° C. heat stimulation (enhancement of the analgesic effect of morphine). In kind it is in vivo. On the set-up: key: −: no analgesic effect was observed; ±: an analgesic effect comparable to the treatment control was observed; +: an analgesic effect comparable to the positive control was observed; ++: a higher analgesic effect than the positive control was observed; +++: a higher analgesic effect than “++” was observed. On the procedure:
For the evaluation of an analgesic effect, the tail-flick test was performed with 48° C. heat stimulation. In the tail-flick test, the tail of mice is exposed to heat stimulation, and latency for the animal to flick the tail is measured. The response latency is known to be delayed after administration of an analgesic drug such as morphine. The test is used for the evaluation of an analgesic effect.
ICR mice at 5 weeks old were subjected to daily simultaneous administration of an intraperitoneal dose of morphine (3 mg/kg) (morphine hydrochloride (trade name), Daiichi Sankyo) and an oral dose of one of the compositions of Examples 1 to 3 (300 mg/kg bLF) and Comparative Example 1 (300 mg/kg) for 5 days. At 30 and 90 minutes after the administration on day 5, the tail-flick test was performed.
As a treatment control, ICR mice at 5 weeks old were subjected to daily simultaneous administration of an intraperitoneal dose of morphine (3 mg/kg) and an oral dose of physiological saline for 5 days. The tail-flick test was then performed in the same manner as above.
As a negative control, daily simultaneous administration of an intraperitoneal dose of physiological saline and an oral dose of physiological saline was performed for 5 days. […]
(Thermal pain tests record how soon the animal reacts.)

B1: bovine lactoferrin (protein, UniProt P24627 20-708, looked up)
Lactotransferrin: APRKNVRWCTISQPEWFKCRRWQWRMKKLGAPSITCVRRAFALECIRAIAEKKADAVTLDGGMVFEAGRDPYKLRPVAAEIYGTKESPQTHYYAVAVVKKGSNFQLDQLQGRKSCHTGLGRSAGWIIPMGILRPYLSWTESLEPLQGAVAKFFSASCVPCIDRQAYPNLCQLCKGEGENQCACSSREPYFGYSGAFKCLQDGAGDVAFVKETTVFENLPEKADRDQYELLCLNNSRAPVDAFKECHLAQVPSHAVVARSVDGKEDLIWKLLSKAQEKFGKNKSRSFQLFGSPPGQRDLLFKDSALGFLRIPSKVDSALYLGSRYLTTLKNLRETAEEVKARYTRVVWCAVGPEEQKKCQQWSQQSGQNVTCATASTTDDCIVLVLKGEADALNLDGGYIYTAGKCGLVPVLAENRKSSKHSSLDCVLRPTEGYLAVAVVKKANEGLTWNSLKDKKSCHTAVDRTAGWNIPMGLIVNQTGSCAFDEFFSQSCAPGADPKSRLCALCAGDDQGLDKCVPNSKEKYYGYTGAFRCLAEDVGDVAFVKNDTVWENTNGESTADWAKNLNREDFRLLCLDGTRKPVTEAQSCHLAVAPNHAVVSRSDRAAHVKQVLLHQQALFGKNGKNCPDKFCLFKSETKNLLFNDNTECLAKLGGRPTYEEYLGTEYVTAIANLKKCSTSPLLEACAFLTR
Take B1: the “Evaluation at 30 min (analgesic effect, tail-flick test)” value (30 minutes after administration on day 5, daily i.p. morphine 3 mg/kg + oral composition (300 mg/kg bLF) for 5 days) is listed as “+”. Besides, the “Evaluation at 90 min (analgesic effect, tail-flick test)” value (90 minutes after administration on day 5, daily i.p. morphine 3 mg/kg + oral composition (300 mg/kg bLF) for 5 days) was “+”.

Source of the values: patent US10307466B2, “Composition comprising sophorolipid, physiologically active substance and oil or fat, and method for producing the same” (SARAYA CO., LTD., priority 2014, dated 2019).
